B1: GAGE1 (parent)
chain: QPPEMIGPMRPEQFSDEVEPATPE
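Further: lentivirally expressed fusions sorted by FACS into six bins by GFP to DsRed ratio, PSI derived from sequencing read proportions per bin multiplied by bin number.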

Variants of: B1
Assay: protein stability index of a GFP-peptide fusion (GPS, HEK-293T) (PSI 1-6); higher = more stable
Conditions: c terminus: a fixed tail appended
Variant QPPEMIGPMRPEQFSDEIEPATPE [V18I] has a protein stability index of 4.91. With QPPEMIGPMRPEQFSDEKEPATPE [V18K] the protein stability index was 5.12. QPPEMIGPMRPEQFSDELEPATPE [V18L] showed a protein stability index of 4.59. Work on QPPEMIGPMRPEQFSDEMEPATPE [V18M] yielded a protein stability index of 4.75. QPPEMIGPMRPEQFSDENEPATPE [V18N] showed a protein stability index of 5.32. Variant QPPEMIGPMRPEQFSDEPEPATPE [V18P] has a protein stability index of 4.85. In the case of QPPEMIGPMRPEQFSDEQEPATPE [V18Q], the protein stability index is reported as 5.35. Variant QPPEMIGPMRPEQFSDEREPATPE [V18R] has a protein stability index of 4.85. Work on QPPEMIGPMRPEQFSDESEPATPE [V18S] yielded a protein stability index of 5.44. In the case of QPPEMIGPMRPEQFSDETEPATPE [V18T], the protein stability index is reported as 4.79. QPPEMIGPMRPEQFSDEWEPATPE [V18W] showed a protein stability index of 5.04. With QPPEMIGPMRPEQFSDEYEPATPE [V18Y] the protein stability index was 4.22. Variant QPPEMIGPMRPEQFSDEVAPATPE [E19A] has a protein stability index of 5.03. For QPPEMIGPMRPEQFSDEVCPATPE [E19C], the protein stability index was 4.62. Work on QPPEMIGPMRPEQFSDEVDPATPE [E19D] yielded a protein stability index of 5.25. Variant QPPEMIGPMRPEQFSDEVFPATPE [E19F] has a protein stability index of 4.95. Variant QPPEMIGPMRPEQFSDEVGPATPE [E19G] has a protein stability index of 4.86. With QPPEMIGPMRPEQFSDEVHPATPE [E19H] the protein stability index was 5.04. With QPPEMIGPMRPEQFSDEVIPATPE [E19I] the protein stability index was 5.05. For QPPEMIGPMRPEQFSDEVKPATPE [E19K], the protein stability index was 4.42. Variant QPPEMIGPMRPEQFSDEVLPATPE [E19L] has a protein stability index of 4.04. Variant QPPEMIGPMRPEQFSDEVMPATPE [E19M] has a protein stability index of 4.83. Work on QPPEMIGPMRPEQFSDEVNPATPE [E19N] yielded a protein stability index of 5.06. For QPPEMIGPMRPEQFSDEVPPATPE [E19P], the protein stability index was 4.43. QPPEMIGPMRPEQFSDEVQPATPE [E19Q] showed a protein stability index of 5.33. In the case of QPPEMIGPMRPEQFSDEVRPATPE [E19R], the protein stability index is reported as 3.98. QPPEMIGPMRPEQFSDEVSPATPE [E19S] gave a protein stability index of 5.18. QPPEMIGPMRPEQFSDEVTPATPE [E19T] gave a protein stability index of 5.17. With QPPEMIGPMRPEQFSDEVVPATPE [E19V] the protein stability index was 4.09. In the case of QPPEMIGPMRPEQFSDEVWPATPE [E19W], the protein stability index is reported as 4.75. QPPEMIGPMRPEQFSDEVYPATPE [E19Y] gave a protein stability index of 4.65. For QPPEMIGPMRPEQFSDEVEAATPE [P20A], the protein stability index was 4.44. Variant QPPEMIGPMRPEQFSDEVECATPE [P20C] has a protein stability index of 4.84. With QPPEMIGPMRPEQFSDEVEDATPE [P20D] the protein stability index was 5.25. QPPEMIGPMRPEQFSDEVEEATPE [P20E] showed a protein stability index of 4.92. With QPPEMIGPMRPEQFSDEVEFATPE [P20F] the protein stability index was 4.98. For QPPEMIGPMRPEQFSDEVEGATPE [P20G], the protein stability index was 5.36. QPPEMIGPMRPEQFSDEVEHATPE [P20H] showed a protein stability index of 5.46. In the case of QPPEMIGPMRPEQFSDEVEIATPE [P20I], the protein stability index is reported as 4.96. Work on QPPEMIGPMRPEQFSDEVEKATPE [P20K] yielded a protein stability index of 4.79. Work on QPPEMIGPMRPEQFSDEVELATPE [P20L] yielded a protein stability index of 5.27. For QPPEMIGPMRPEQFSDEVEMATPE [P20M], the protein stability index was 4.65. With QPPEMIGPMRPEQFSDEVENATPE [P20N] the protein stability index was 4.75. For QPPEMIGPMRPEQFSDEVEQATPE [P20Q], the protein stability index was 5.21. Work on QPPEMIGPMRPEQFSDEVERATPE [P20R] yielded a protein stability index of 5. Work on QPPEMIGPMRPEQFSDEVESATPE [P20S] yielded a protein stability index of 5.18. QPPEMIGPMRPEQFSDEVETATPE [P20T] gave a protein stability index of 4.91. QPPEMIGPMRPEQFSDEVEWATPE [P20W] showed a protein stability index of 3.7. QPPEMIGPMRPEQFSDEVEYATPE [P20Y] gave a protein stability index of 5.13. With QPPEMIGPMRPEQFSDEVEPCTPE [A21C] the protein stability index was 4.59. For QPPEMIGPMRPEQFSDEVEPDTPE [A21D], the protein stability index was 5.12. In the case of QPPEMIGPMRPEQFSDEVEPETPE [A21E], the protein stability index is reported as 5.21. QPPEMIGPMRPEQFSDEVEPFTPE [A21F] gave a protein stability index of 5.05. Work on QPPEMIGPMRPEQFSDEVEPGTPE [A21G] yielded a protein stability index of 4.98. For QPPEMIGPMRPEQFSDEVEPHTPE [A21H], the protein stability index was 4.66. For QPPEMIGPMRPEQFSDEVEPITPE [A21I], the protein stability index was 4.87. For QPPEMIGPMRPEQFSDEVEPKTPE [A21K], the protein stability index was 5.32. In the case of QPPEMIGPMRPEQFSDEVEPLTPE [A21L], the protein stability index is reported as 4.9. For QPPEMIGPMRPEQFSDEVEPMTPE [A21M], the protein stability index was 5.17. For QPPEMIGPMRPEQFSDEVEPNTPE [A21N], the protein stability index was 4.29. Variant QPPEMIGPMRPEQFSDEVEPPTPE [A21P] has a protein stability index of 4.6. Variant QPPEMIGPMRPEQFSDEVEPQTPE [A21Q] has a protein stability index of 4.79. With QPPEMIGPMRPEQFSDEVEPRTPE [A21R] the protein stability index was 5. In the case of QPPEMIGPMRPEQFSDEVEPSTPE [A21S], the protein stability index is reported as 4.79. In the case of QPPEMIGPMRPEQFSDEVEPTTPE [A21T], the protein stability index is reported as 4.83. QPPEMIGPMRPEQFSDEVEPVTPE [A21V] gave a protein stability index of 5.34. For QPPEMIGPMRPEQFSDEVEPWTPE [A21W], the protein stability index was 4.7. With QPPEMIGPMRPEQFSDEVEPYTPE [A21Y] the protein stability index was 4.08. QPPEMIGPMRPEQFSDEVEPAAPE [T22A] gave a protein stability index of 4.6. In the case of QPPEMIGPMRPEQFSDEVEPACPE [T22C], the protein stability index is reported as 4.97. With QPPEMIGPMRPEQFSDEVEPADPE [T22D] the protein stability index was 5.43. In the case of QPPEMIGPMRPEQFSDEVEPAEPE [T22E], the protein stability index is reported as 5.2. In the case of QPPEMIGPMRPEQFSDEVEPAFPE [T22F], the protein stability index is reported as 4.46. For QPPEMIGPMRPEQFSDEVEPAGPE [T22G], the protein stability index was 5.15. With QPPEMIGPMRPEQFSDEVEPAHPE [T22H] the protein stability index was 4.89. Variant QPPEMIGPMRPEQFSDEVEPAIPE [T22I] has a protein stability index of 4.66. QPPEMIGPMRPEQFSDEVEPAKPE [T22K] gave a protein stability index of 4.96. QPPEMIGPMRPEQFSDEVEPALPE [T22L] showed a protein stability index of 4.79. With QPPEMIGPMRPEQFSDEVEPAMPE [T22M] the protein stability index was 4.79. In the case of QPPEMIGPMRPEQFSDEVEPANPE [T22N], the protein stability index is reported as 4.56. In the case of QPPEMIGPMRPEQFSDEVEPAPPE [T22P], the protein stability index is reported as 5.08. With QPPEMIGPMRPEQFSDEVEPAQPE [T22Q] the protein stability index was 5.2. Variant QPPEMIGPMRPEQFSDEVEPARPE [T22R] has a protein stability index of 4.61. QPPEMIGPMRPEQFSDEVEPAVPE [T22V] gave a protein stability index of 4.8. With QPPEMIGPMRPEQFSDEVEPAWPE [T22W] the protein stability index was 4.35. QPPEMIGPMRPEQFSDEVEPAYPE [T22Y] showed a protein stability index of 4.84. For QPPEMIGPMRPEQFSDEVEPATAE [P23A], the protein stability index was 5.02. With QPPEMIGPMRPEQFSDEVEPATCE [P23C] the protein stability index was 4.57. Variant QPPEMIGPMRPEQFSDEVEPATDE [P23D] has a protein stability index of 5.28. For QPPEMIGPMRPEQFSDEVEPATEE [P23E], the protein stability index was 4.81. QPPEMIGPMRPEQFSDEVEPATFE [P23F] showed a protein stability index of 4.69. Variant QPPEMIGPMRPEQFSDEVEPATGE [P23G] has a protein stability index of 5.2. QPPEMIGPMRPEQFSDEVEPATHE [P23H] showed a protein stability index of 5. QPPEMIGPMRPEQFSDEVEPATIE [P23I] gave a protein stability index of 4.72.

Reference: the supplement of paper PMC10567573
